This assay has as its target T1, L1-10 fusion protein (human).
T1 construct: also called L1-10, unlabeled; L1-10 antigen
In words: indirect sandwich luminescence ELISA, L1-10 held by anti-MBP or StrepMAb on RAM. Background: ELISA stands for enzyme-linked immunosorbent assay.

Experimental: Appropriate diluted standards were prepared along with controls and samples in a Assay Diluent in a separate non-sticky plate. 50 μl or 100 μl of each antibody or antigen (at indicated concentrations) were pipetted to the plate wells. Plates were sealed and incubated for 60 minutes at RT (unless otherwise indicated). The plates were washed with PBST 4×. 50 μl/well of Furimazine substrate was pipetted and incubated for 3 minutes at RT.
The mouse monoclonal antibody served as the anchor for L1-10.

B1: M22_NLuc_HisTag antibody protein (antibody, human IgG1, lambda)
heavy: not shown
light: LTVLTQPPSVSGAPRQRVTISCSGNSSNIGNNAVNWYQQLPGKAPKLLIYYDDQLPSGVSDRFSGSRSGTSASLAIRGLQSEDEADYYCTSWDDSLDSQLFGGGTRLTVLGQPKAAPSVTLFPPSSEELQANKATLVCLISDFYPGAVTVAWKADSSPVKAGVETTTPSKQSNNKYAASSYLSLTPEQWKSHKSYSCQVTHEGSTVEKTVAPTECS
notes: also called M22_Luc; mAb Nluc-His
On to B1, for which the binding result is reported as “binds”.

These data come from patent US20210188971A1 (QUIDEL, published 2021).
